Laboratory results from paper PMC8262884.

How the values were obtained:
[1] = biological target: native phosphoenolpyruvate carboxykinase (PEPCK) (Trypanosoma brucei (endogenous in EATRO1125.T7T procyclic cells))
[2] = biological target: TY-tagged phosphoenolpyruvate carboxykinase (TY-PEPCK) (Trypanosoma brucei); test: proximity ligation; Duolink In Situ Red mouse/rabbit kit on PFA-fixed, Triton X-100-permeabilized Δpepck/TY-PEPCK/UGP-MYC.i procyclic cells; rabbit anti-MYC and mouse anti-TY1; cell lines with only one tagged protein as negative controls

B1: TY-UGP_(1-485) (enzyme)
chain: MPLNPPSAFSGAALACLEKMQASGVEEKCIHIFLIQHALVRKGETGYIPEKSISPVESLPFLQGIETKGENTALLRQAVVLKLNGGLGTGMGLNGPKSLLQVKNGQTFLDFTALQLEHFRQVRNCNVPFMLMNSFSTSGETKNFLRKYPTLYEVFDSDIELMQNRVPKIRQDNFFPVTYEADPTCEWVPPGHGDVYTVLYSSGKLDYLLGKGYRYMFISNGDNLGATLDVRLLDYMHEKQLGFLMEVCRRTESDKKGGHLAYKDVIDETTGQTRRRFVLRESAQCPKEDEDSFQNIAKHCFFNTNNIWINLMELKKMMDEQLGVLRLPVMRNPKTVNPQDSQSTKVYQLEVAMGAAISLFDRSEAVVVPRERFAPVKTCSDLLALRSDAYQVTEDQRLVLCEERNGKPPAIDLDGEHYKMIDGFEKLVKGGVPSLRQCTSLTVRGLVEFGADVSVRGNVVIKNLKEEPLIIGSGRVLDNEVVVVE
B1 showed a glycosomal import of the tagged UGP (Western blot of glycosomal and cytosolic fractions), against native UGP in parental cells [1] of 9 fold.

B2: MYC-tagged UDP-glucose pyrophosphorylase (UGP-MYC) (enzyme)
chain: MPLNPPSAFSGAALACLEKMQASGVEEKCIHIFLIQHALVRKGETGYIPEKSISPVESLPFLQGIETKGENTALLRQAVVLKLNGGLGTGMGLNGPKSLLQVKNGQTFLDFTALQLEHFRQVRNCNVPFMLMNSFSTSGETKNFLRKYPTLYEVFDSDIELMQNRVPKIRQDNFFPVTYEADPTCEWVPPGHGDVYTVLYSSGKLDYLLGKGYRYMFISNGDNLGATLDVRLLDYMHEKQLGFLMEVCRRTESDKKGGHLAYKDVIDETTGQTRRRFVLRESAQCPKEDEDSFQNIAKHCFFNTNNIWINLMELKKMMDEQLGVLRLPVMRNPKTVNPQDSQSTKVYQLEVAMGAAISLFDRSEAVVVPRERFAPVKTCSDLLALRSDAYQVTEDQRLVLCEERNGKPPAIDLDGEHYKMIDGFEKLVKGGVPSLRQCTSLTVRGLVEFGADVSVRGNVVIKNLKEEPLIIGSGRVLDNEVVVVE
B2 showed a percent of PLA-positive cells [2] of 62%.
